According to paper PMC4564277, “Biochemical and Structural Insights into the Mechanism of DNA Recognition by Arabidopsis [sequence] INSENSITIVE3” (PLoS ONE, 2015):

Tests used:
[1] = molecular target: T1, EIN3 82-352 (optimal DBD) (Arabidopsis thaliana, UniProt O24606 82-352); experiment: EMSA; EMSA: 1 nM biotin probe, 10 mM Tris-HCl pH 7.5, 40 mM KCl, 3 mM MgCl2, 1 mM EDTA, 10% glycerol, 1 mM DTT, 1 ug poly(dI-dC) in 20 uL, room temperature, 30 min; settings: protein: recombinant, tags: N-terminal His6 (pET-28a), chain copies: 2
T1 sequence: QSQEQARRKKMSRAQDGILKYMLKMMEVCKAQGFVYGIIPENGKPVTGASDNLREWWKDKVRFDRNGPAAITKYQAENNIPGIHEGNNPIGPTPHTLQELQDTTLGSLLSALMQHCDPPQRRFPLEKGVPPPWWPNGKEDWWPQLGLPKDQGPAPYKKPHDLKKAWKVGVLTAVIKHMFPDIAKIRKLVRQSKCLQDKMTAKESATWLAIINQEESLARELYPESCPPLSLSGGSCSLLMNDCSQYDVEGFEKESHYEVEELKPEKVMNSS

[2] = molecular target: T1, EIN3 82-352 (optimal DBD); experiment: as above; settings: protein: recombinant; tags: N-terminal His6 (pET-28a); chain copies: 2; label: 3' biotin on forward strand; blunt
[3] = molecular target: the molecule itself; experiment: SEC-MALS; Superdex 200 analytical column, 1 ml/min, 10 mM Tris–HCl pH 7.5, 100 mM NaCl, 1 mM DTT, 4°C; no DNA
EIN3 68-352 = molecular target: T2, EIN3 68-352 (Arabidopsis thaliana, UniProt O24606 68-352); experiment: EMSA; EMSA: 1 nM biotin probe, 10 mM Tris-HCl pH 7.5, 40 mM KCl, 3 mM MgCl2, 1 mM EDTA, 10% glycerol, 1 mM DTT, 1 ug poly(dI-dC) in 20 uL, room temperature, 30 min; settings: protein: recombinant; tags: N-terminal His6 (pET-28a); chain copies: 2; label: 3' biotin on forward strand; blunt
T2 sequence: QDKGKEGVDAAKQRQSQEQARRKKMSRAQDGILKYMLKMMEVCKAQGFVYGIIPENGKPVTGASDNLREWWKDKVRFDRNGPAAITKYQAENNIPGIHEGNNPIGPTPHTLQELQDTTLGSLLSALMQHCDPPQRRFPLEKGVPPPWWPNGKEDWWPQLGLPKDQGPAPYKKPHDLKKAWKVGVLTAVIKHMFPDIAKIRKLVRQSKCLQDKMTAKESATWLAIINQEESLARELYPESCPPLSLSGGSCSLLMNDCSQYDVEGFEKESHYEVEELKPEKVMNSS

EIN3 1-352 = molecular target: T3, EIN3 1-352 (Arabidopsis thaliana, UniProt O24606 1-352); experiment: as above; settings: protein: recombinant; tags: N-terminal His6 (pET-28a); chain copies: 2; label: 3' biotin on forward strand; blunt
T3 sequence: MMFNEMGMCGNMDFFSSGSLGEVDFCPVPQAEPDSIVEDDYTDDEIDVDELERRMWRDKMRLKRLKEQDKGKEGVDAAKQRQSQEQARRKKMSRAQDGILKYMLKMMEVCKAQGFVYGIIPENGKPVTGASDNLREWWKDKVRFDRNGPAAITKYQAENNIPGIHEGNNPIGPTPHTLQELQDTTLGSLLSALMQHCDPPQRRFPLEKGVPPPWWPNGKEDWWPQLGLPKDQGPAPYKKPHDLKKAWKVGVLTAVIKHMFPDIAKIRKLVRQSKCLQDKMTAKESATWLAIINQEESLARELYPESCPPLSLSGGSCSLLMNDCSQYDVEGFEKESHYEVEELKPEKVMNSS

EIN3 98-352 = molecular target: T4, EIN3 98-352 (Arabidopsis thaliana, UniProt O24606 98-352); experiment: as above; settings: protein: recombinant; tags: N-terminal His6 (pET-28a); chain copies: 2; label: 3' biotin on forward strand; blunt
T4 sequence: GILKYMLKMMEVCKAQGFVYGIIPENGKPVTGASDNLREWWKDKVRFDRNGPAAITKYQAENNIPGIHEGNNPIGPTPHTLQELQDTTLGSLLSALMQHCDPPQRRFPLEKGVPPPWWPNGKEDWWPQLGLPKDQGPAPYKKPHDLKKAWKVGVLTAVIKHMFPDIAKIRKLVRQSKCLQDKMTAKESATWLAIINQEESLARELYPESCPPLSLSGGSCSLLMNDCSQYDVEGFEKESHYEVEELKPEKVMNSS

EIN3 91-352 = molecular target: T5, EIN3 91-352 (Arabidopsis thaliana, UniProt O24606 91-352); experiment: as above; settings: protein: recombinant; tags: N-terminal His6 (pET-28a); chain copies: 2; label: 3' biotin on forward strand; blunt
T5 sequence: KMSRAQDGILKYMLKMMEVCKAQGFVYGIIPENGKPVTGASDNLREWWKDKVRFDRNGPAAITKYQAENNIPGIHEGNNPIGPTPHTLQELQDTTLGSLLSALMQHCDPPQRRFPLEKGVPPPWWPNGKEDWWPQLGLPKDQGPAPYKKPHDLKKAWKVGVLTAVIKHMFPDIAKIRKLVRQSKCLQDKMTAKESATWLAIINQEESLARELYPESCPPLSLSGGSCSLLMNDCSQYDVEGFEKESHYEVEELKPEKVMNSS

EIN3 82-352 P216S = molecular target: T6, EIN3 82-352 P216S (Arabidopsis thaliana, UniProt O24606 82-352, P216S); experiment: as above; settings: protein: recombinant; tags: N-terminal His6 (pET-28a); chain copies: 2; label: 3' biotin on forward strand; blunt
T6 sequence: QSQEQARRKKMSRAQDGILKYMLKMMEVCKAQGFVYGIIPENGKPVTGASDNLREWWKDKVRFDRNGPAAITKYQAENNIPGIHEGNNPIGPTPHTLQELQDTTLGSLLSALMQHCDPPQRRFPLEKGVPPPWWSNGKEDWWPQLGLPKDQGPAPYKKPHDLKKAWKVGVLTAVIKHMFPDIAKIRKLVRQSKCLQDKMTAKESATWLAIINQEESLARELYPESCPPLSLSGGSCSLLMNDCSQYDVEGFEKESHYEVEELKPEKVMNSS

[4] = molecular target: T1, EIN3 82-352 (optimal DBD); experiment: EMSA; tighter than ERF1; EMSA: 1 nM biotin probe, 10 mM Tris-HCl pH 7.5, 40 mM KCl, 3 mM MgCl2, 1 mM EDTA, 10% glycerol, 1 mM DTT, 1 ug poly(dI-dC) in 20 uL, room temperature, 30 min; settings: protein: recombinant; tags: N-terminal His6 (pET-28a); chain copies: 2; label: 3' biotin on forward strand; blunt
[5] = label: 3' biotin on forward strand, blunt

B1: 2EBS-S10 (dsDNA)
DNA 1: AAGATACATGCAAAAAAGCATGTATCTT
DNA 2: AAGATACATGCTTTTTTGCATGTATCTT
Kd [1, 5]: ~110 nM

B2: 1EBS-S10 (dsDNA)
DNA 1: AAGATACATGCAAAAAAGCGATCGACTT
DNA 2: AAGTCGATCGCTTTTTTGCATGTATCTT
Kd [1, 5]: ~690 nM

B3: 2EBS-S5 (dsDNA)
DNA 1: AAGATACATGCAGCATGTATCTT
DNA 2: AAGATACATGCTGCATGTATCTT
binding signal [2]: ~15 fold higher Kd than 2EBS-S10

B4: 2EBS-S10-R (dsDNA)
DNA 1: AAGATGTATGCAAAAAAGCATACATCTT
DNA 2: AAGATGTATGCTTTTTTGCATACATCTT
Kd [1, 5]: ~1240 nM

B5: EIN3 82–352 (optimal DNA-binding domain of Arabidopsis ETHYLENE …3) (domain or fragment, UniProt O24606 82-352, looked up)
chain: QSQEQARRKKMSRAQDGILKYMLKMMEVCKAQGFVYGIIPENGKPVTGASDNLREWWKDKVRFDRNGPAAITKYQAENNIPGIHEGNNPIGPTPHTLQELQDTTLGSLLSALMQHCDPPQRRFPLEKGVPPPWWPNGKEDWWPQLGLPKDQGPAPYKKPHDLKKAWKVGVLTAVIKHMFPDIAKIRKLVRQSKCLQDKMTAKESATWLAIINQEESLARELYPESCPPLSLSGGSCSLLMNDCSQYDVEGFEKESHYEVEELKPEKVMNSS
notes: numbering based on UniProt O24606; Cloned into NheI/BamHI of pET-28a; Printed predicted Mw: monomer 31.29 kDa, dimer 62.58 kDa; also called optimal DBD; EIN3 truncation 82–352; source: E. coli Transetta (DE3), purified (Ni-NTA, Superdex 75 size exclusion)
stoichiometry N [3]: 2

B6: 2EBS-S8 (dsDNA)
DNA 1: AAGATACATGCAAAAGCATGTATCTT
DNA 2: AAGATACATGCTTTTGCATGTATCTT
binding signal [2]: ~3 fold higher Kd than 2EBS-S10

B7: ERF1 (dsDNA)
DNA 1: GTTGTTTGGGATTCAAGGGGCATGTATCTTGAATCC
DNA 2: GGATTCAAGATACATGCCCCTTGAATCCCAAACAAC
binding result (EIN3 68-352): binds | binding result (EIN3 1-352): binds | binding result (EIN3 98-352): binds | binding result (EIN3 91-352): binds | binding result (EIN3 82-352 P216S): binds | binding result [1, 5]: binds

B8: 0EBS-S10 (dsDNA)
DNA 1: AAGTCGATCGCAAAAAAGCGATCGACTT
DNA 2: AAGTCGATCGCTTTTTTGCGATCGACTT
Kd [1, 5]: ~2280 nM

B9: 2EBS-S10-36 (dsDNA)
DNA 1: TGAAGATACATGCAATTAAGCATGTATCTTGAATCC
DNA 2: GGATTCAAGATACATGCTTAATTGCATGTATCTTCA
binding result [4]: binds

B10: 2EBS-S10-2 (dsDNA)
DNA 1: AAGGTACATGCAAAAAAGCATGTACCTT
DNA 2: AAGGTACATGCTTTTTTGCATGTACCTT
binding result [1, 5]: binds

AAGATACATGCAAAAAAGCATGTATCTT (ssDNA) [2EBS-S10-F]
binding result ([1]; label: 3' biotin, single strand): no binding
